In the domain aggregation screens of Martell et al. (2025):

Assay: soluble fraction after stress (log2 fold change); higher = more stays soluble; pooled small domains, quantitative proteomics
Settings: stress: 50 degC
How it was run: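 Pooled custom libraries of small protein domains were measured in a high-throughput format, with quantitative proteomics as the read-out. Each library was stressed at 50°C. Aggregation propensity is given as the base-two logarithm of the fold change in how much of each protein stays soluble after the stress. Higher values mean a larger share of the protein remains in solution.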

| Sequence | soluble fraction (log2) |
| --- | --- |
| HMAMLSKREAEILKLTAKGHSSTDIAQRLTISVNTVEFHRRRIMQKLNAANVAEAVGKAAELGLFF | -0.438 |
| HMNAVITTQKAKQIALAHAGLSEADVNYVKAELENDDGVQVYDIEFYSKNIEYDYDINAVTGEIMSFDHDI | -0.47 |
| HMPENESPEEKHARFRRFAEGLMARLDENESVRDILPELKVWLDDRELDRDDQRLARNLMLTAGKRE | 0.0802 |
| HMRYPLPYAFARSQQLLLEETDDGRYTLWMSSHPARSAVGEVSRKYGVQTFEVLADGPLAQRISAAYAQ | -1.37 |
| HMQELGVISEGKYNIELNMVSWNDREPKYDIRSWAPDHSRMGKGISLTEEEMERLVELWNTRNE | -0.248 |
| HMSTMTGTVDTPGASLNVRTGAWGPIVGQLAHGSKVTIIGSSGDWFKISYNGATRYVHKNYVNTT | -0.153 |
| HMFDGVAAGKPAILDALEDAGGFLPLNSKSSVEEIQASFSFSKRVFKQLIGMLYKERKIVITDDGIRLAD | -0.352 |
| HMQIEQVDYGTFMTMIDDKKIDKVEIKDNQILFIGKDDNKKYKTGIVQDPQLAERLHASGAVFSQDI | -0.136 |
| HMETIVGIDPDSKKKIVLKKGIKGRPDYLSFNKKNYSLPSELKEKNVSLEQALEIINDKKSNKKKIK | 0.334 |
| HMVDVEMLTTVSDHIEAKLLQGILENHGIPSYSVDEESGEYMRVYMGYSIFGEKIYVRASDLLAAQGYL | -2.25 |
| HMSELDSYIGARLRMRRLMLGMSQEALGEKLSLTFQQIQKYEKGTNRVSASRLYELAQVLDVPVQFFFDGA | -2.93 |
| HMNGQFIELKNTTGTIIEARVLSFQNGKVKLQRNDGLIFVASISIFDSESIEVIKQKVAEISESKKS | -0.224 |
| HMNEKLRNYIDTLFEHAPTTVRAVELKEEMFQNLTDKYNDLIAQGKSEEAAFNIAVASIGDVDSLIAGLS | 0.219 |
| HMFYQLTENQRRILSSLEQNPRVSAAHLAEEIGISSRKVENNLKKLKEIGLLQRHGSPRKGYWSINQGW | -0.623 |
| HMNPESRRSELIDAATKLFFSRGYTATSIRDILDAVDDRTASPSVFYYYFESKEAIYQAVLQRYTD | -2.03 |
| HMLPSDLDEGNRRRQLIEGAARLFRAKGFDGTSTRDIAAAAGMRSGSPFYHFDSKNALLYVVVQEGM | -0.0519 |
| HMDTTLFGLFQNVILTQEDYEELSRTIVEDLDGLIDRLSAYMTSTGKTYKNHKATLLSWYLQDEKKFK | -1.82 |
| HMQGEASDAQLKAIFAIARKLGITDDFEVHRKASRLAGVPEPEVLPSLKSLTYAQASAVIKALQEELE | 0.084 |
| HMDTVEALTEQLKKLDKRGEGQIPAPEFKQYMMNMGGKMTAEELDEMMKVADPGKEGVVNIAEFADAL | 0.35 |

| Sequence | soluble fraction (log2) |
| --- | --- |
| HMDSGVPEWLASALRASPVAWKNFLALPPSHQRRYVGWISSARRDETRNRRIAEAISLLVEHKRLG | -1 |
| HMIEDMQQWIRQIREIVSNRLDLTRNISDDEIREVISDIVMEQSRQQYMSLNEKKTLMEGVFNSMR | -0.157 |
| HMVAMLDASYRGVMQTISTLLAQGNTERAYDEAVNARGQMSKQQWNNLANLIWERTGQKIDSGVSYK | 0.139 |
| HMTPLFNQGEVLKGFVLQTGTNNRVLLQIGTAKVLADAQTPLKAGEQLTLRVEATGPRTVLQILG | 0.553 |
| HMLEQISDPEVLSKLADEVLSQQEKMVMDYRKGKTAAFQGLMGQMMKKTKGKGNPAKIQEILAQKL | 0.193 |
| HMSLNIIEITAKKEINELKSFNIIYFNFDKNNSIYEYKISEREKKEILEIEKIIKNSDNVTNYEIRYSF | -0.52 |
| HMEREQNILQGREVVERELRRLGLAEAYTVSDIAKALKFDDEEQFLAKVGFGDIQSRQISGAIALMEKN | 0.0472 |
| HMKVDRLISIVLVLLDKNRISAQELADMFEVSLRTIYRDIDAIELAGIPIRSTSGVGGGFEIMPNY | -0.577 |
| HMKVDLSEEEKTILELLKKESPQELETIKAASTLSNKKWDKAIKGLRKHNLAKVNKTDDGLFVELE | 0.257 |
| HMPYPSPADLARMDELIAWVKDEGRLPRDRSGQRSERSMARWLAARRREAAEGTLDPAYRDGLAQVPGWR | -0.368 |
| HMLDKEDNANAGKTLLERELSRAHLSDVEHRELAQRLHLASEQELYIKIGSGDLSIIQALNRAKEFKDT | -0.0156 |
| HMQSMSADDWSEKARVLMSAGIIVMGQEAKEKILNLKSLVPLIEAASASNVSMIDSRTFDELLMIIP | -1.26 |
| HMNQDMINFDKLSVRLKNVLIENNLKTVDSLLNYPAEEFEYLTNLGEKTLQELLTYRNELAASNNIQ | -0.289 |
| HMDDATIKVNIAAKFLNAGNNLFVDIDTTVLEGRVLLTGLVDTQEVRIDAVRLVWEVEGIREVINEIEIG | -4.89 |
| HMIPLKTEAIPVSYGDGAAIIRSLAVAFPSRTFHWDAQTRRIIGQALDEEWQVIRSLVWQLDIP | -0.584 |
| HMHQKYIITGTRDTYVVSQGETLRTIAEHVYGSRGYARYIIEHNHITHPDDIPVGLTIRLPELELNPDYR | -0.525 |
| HMVAGHLSEKKGYYYAVLNYKDYTGKRKSKWVSTGLPVKGNKRRAEKILADIKRDFVPEEPKR | -0.596 |
| HMGSFFSKATAPVRTTGGDGLYKHGSIWFNTSTGRLFVYIPDDRYTGLLDTHNGDIGYWVDVS | -2.2 |
| HMTVSRRYTENEMETALKAYLATHNFISRRDMQQEFALTIYSARKWLNHFVDVGLIERIGLKNAPIYKL | -0.4 |
